Test results taken from PMC9041834, “Ubiquitin ligase activity inhibits Cdk5 to control axon termination” (PLoS Genetics, 2022).

Target: T1, GFP::FSN-1 CRISPR (endogenous FSN-1 N-terminally fused with GFP) (C. elegans, UniProt Q18223 1-332)
T1 construct: FSN-1, F-box protein of C. elegans (orthologue of human FBXO45), expressed from the endogenous locus; also called bgg47; source: C. elegans, endogenous locus tagged by CRISPR/Cas9, in whole animal lysate; not shown: GFP, N-terminal, kept
T1 sequence (looked up): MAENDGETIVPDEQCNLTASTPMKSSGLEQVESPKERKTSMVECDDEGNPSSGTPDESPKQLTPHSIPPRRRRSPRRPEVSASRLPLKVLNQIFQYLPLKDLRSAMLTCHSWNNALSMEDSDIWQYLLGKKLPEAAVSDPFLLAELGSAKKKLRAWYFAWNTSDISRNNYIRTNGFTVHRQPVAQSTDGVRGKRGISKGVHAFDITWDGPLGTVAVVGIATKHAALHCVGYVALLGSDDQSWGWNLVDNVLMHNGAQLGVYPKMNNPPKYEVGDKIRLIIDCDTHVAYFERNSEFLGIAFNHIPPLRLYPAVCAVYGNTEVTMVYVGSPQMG
Test: co-IP; CRISPR-tagged endogenous proteins in whole animal lysates of C. elegans (wild-type background, and rpm-1 LD CRISPR background for the FSN-1 pair); 50 mM Tris HCl pH 7.5, 150 mM NaCl, 1.5 mM MgCl2, 10% glycerol, 0.1% NP-40, 1 mM DTT; anti-FLAG or anti-GFP, protein-G agarose 4 h at 4°C; immunoblot
Conditions: partners not purified

fold change of co-precipitated CDK-5::FLAG, rpm-1 LD CRISPR background against wild-type background: ~6 fold
B1: CDK-5::3xFLAG CRISPR (endogenous CDK-5 C-terminally tagged with 3xFLAG) (enzyme)
chain: not shown
notes: CDK-5, serine/threonine kinase of C. elegans (Cdk5 orthologue), expressed from the endogenous locus; also called CDK-5::FLAG; CDK-5::FLAG CRISPR; source: C. elegans, endogenous locus tagged by CRISPR/Cas9, in whole animal lysate; not shown: 3xFLAG, C-terminal, kept
